From the nanobody polyreactivity screen of Harvey et al. (2022)

assay: yeast display, Sf9 membrane polyspecificity reagent, FACS + sequencing; frameworks hold sequencing errors
Method in brief: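 A synthetic nanobody library was expressed on Saccharomyces cerevisiae BJ5465 by galactose induction for 36–48 hours. The library was stained for 1 hour at 4 °C with 10% biotinylated, detergent-solubilized Sf9 membrane reagent and enriched with streptavidin microbeads before FACS. Low and high (top ~1%) gates were set on anti-HA fluorescence for expression and streptavidin fluorescence for reagent binding, and each polyreactivity label reflects the gate of origin.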

Sequence | polyreactivity (PSR sort gate)
QVQLVESGGGLVQAGGSLRLSCADSGSIFFFYAMGWYRQAPGKERELVAAISKSPSSTYYADSVKGRFTISRDNAKNTVYLQMNSLKPEDTAVYYCNTGYSGIQYYYWGQGAQVTVSS | low polyreactivity
QVQLVESGGGLVQAGGSLRLSCADSGSILIHYTMGWYRQEPGKERELVAAISSTGGSTYYADSVKGRFTISRDNAKNTVYLQMNSLKPEDTAVYYCATGPHQPPYSYLDYDYWGQGTQVTVSS | low polyreactivity
QVQLVESGGGLVQAGGSLRLSCADSGSISDYYAMGWYRQAPGKERELVAAISWDGGSTYYADSVKGRFTISRDNAKNTVYLQMNSLKPEDTAVYYCAAVAWEGSGSEMYSWGQGTQVTVSS | low polyreactivity
QVQLVESGGGLVQAGGSLRLSCADSGSTFRPYAMGWNRQAPGKERELVAAISSGDSTYYADSVKGRFTISRDNAKNTVYLQMNSLKPEDTAVYYCAKRKYWHRGGGYWGQGTQVTVSS | high polyreactivity
QVQLVESGGGLVQAGGSLRLSCADSGSTFWFYERGWYSQAPGKVRELVAVISNSGSTYYADSVKGLFTISRDNAKNTVYLQMNSLKPEDTAVYYCNKDGGGDSYWYDYWGQGTQVTVSS | low polyreactivity
QVQLVESGGGLVQAGGSLRLSCADSGSTFWLYAMGWYRQAPGKERELVASISSRGRSTYYADSVKGRFTISRDNAKNTVYLQMNSLKPEDTAVYYCAAKDIRYDDDYWGQGTQVTVSS | low polyreactivity
QVQLVESGGGLVQAGGSLRLSCADSGSTFYRYGMASSRHAPGKERELVAAISWRGGITYYADSVKGRFTISRENAMHTVYLQRNSLKPQDSAVYYCAADGPYTGDGALDYWGQGTQVTVSS | high polyreactivity
QVQLVESGGGLVQAGGSLRLSCADSGSTFYVYSMGWYRQAPGKERELVAAITGSTGSTYYADSVKGRFTISRDNAKNTVYLQMNSLKPVDTAVYYCAADFYGVPIIYDYWGQGTQVTLSS | low polyreactivity
QVQLVESGGGLVQAGGSLRLSCADSGSTIPKYAMGWSRQAPGKERELVAVITSGGSTYYADSVKGRFTISRDNAKNTVYLQMISLKPEDTAVYYCAARKYRRFDYWGQGTQVTVSS | high polyreactivity
QVQLVESGGGLVQAGGSLRLSCADSGTTFVKYAMGWYRQAPGKERELVAAISSRGGRTYYADSVKGRFTISRDNAKNTVYLQMNSLKPEDTEVYYCNKGTRLDGEYEYWGHGTQVTVSS | high polyreactivity
QVQLVESGGGLVQAGGSLRLSCADSGYIFDAYAMGWYRQAPGKERELVAAIDIGGSTYYADSVKGRFTISRDNAKNTVYLQMNSLKPEDTAVYYCAEWFYFDQWDYAREYWGQGTQVTVSS | low polyreactivity
QVQLVESGGGLVQAGGSLRLSCAGSGNIFSTYAMGWYRPAPGKVRELVASISENGGSTYYADSVKGRFTISRDNAKNTVYLQMNSLKPEDTAVYYCNADAYVYFDDGDYWGQGTQVTVSS | low polyreactivity
QVQLVESGGGLVQAGGSLRLSCAGSGRIFARNVMGWYGQAPGKVRELVAAISRSGGSTYYADSVKGRFTISRDNAKNTVYLQMNSLKPEDTAFYYCNAYYPIRSSPYGYYYWGQGTQVTVSS | high polyreactivity
QVQLVESGGGLVQAGGSLRLSCAGSGRIFYVYAMGWYRQAPGKERELVAAISRGGSTNYADSVKGRFTISRDNAKNTVYLQMNSLKPEDTAVYYCAASSLPHYSFRHSYLYEYWGQGTQVTVSS | low polyreactivity
QVQLVESGGGLVQAGGSLRLSCAGSGSTFDSYAMGWYRQAPGKERELVAAITRSDASTYYADSVKGRFTISRDNAKNTVYLQMNSLKPEDTAVYYCAADTSLVYYGGDWEYYYWGQGTQVTVSS | low polyreactivity
QVQLVESGGGLVQAGGSLRLSCAGSGSTFRSNAMGWYRQAPGKERELVAAISQRGGSTYYADSVKGRFTISRDNAKNTVYLQMNSLKPEDTAVYYCAAQYFRRSGYWGQGTQVTVSS | high polyreactivity
QVQLVESGGGLVQAGGSLRLSCAGSGSTFVVYSIGWYRQAPGKERELVAAITRGGGSTYYAYSVKGRFTISRDNAKNTVYLLMNSLKPEDTAVYYCAAYQLPGLRTSFEYWGQGTQVTVSS | low polyreactivity
QVQLVESGGGLVQAGGSLRLSCAGSGSTVSANALGSYRQAPGKDRELVAAISRRGGSTNYADSVKGRFTISRDNAKNTVYLQMNSLKPEDTAVYYCAGLYVPRSPFSYDYWGQGTQVTVSS | high polyreactivity
QVQLVESGGGLVQAGGSLRLSCAGSGYILFAYAMGWSRQAPGKERELVATITTSGGITYYADSVKGRFTISRDNAKNTVYLQMNSLKPEDTEVYYWAAAEGGGLVTYDYWGQGSQVTVSS | low polyreactivity
QVQLVESGGGLVQAGGSLRLSCAGYGRIFEDNSMVSYRQPPGKERELVAAISSGDSTKYADSVKGRFTISRDNAKTTVYLQIKSLKQEDTAVYYCAAERNHGLVGSESVGRNVYWGHGTQVTVSS | low polyreactivity
QVQLVESGGGLVQAGGSLRLSCAHSGFTFTRNAMGWYRQSPGKETELVATISGSGGGTYYADSVKGRFTISRDNAKNTVYLQMNRLKPEDTAVYYCNARRLYSWQGTARYDFWGQGTQVTVSS | low polyreactivity
QVQLVESGGGLVQAGGSLRLSCAPSGATFRRNAMGWYRQAPGKERELVAAITWRGGSTSYADSVKGRFTISRDNAKNTVYLQMNSLKREDTAVYYCAAVKGHSQVLSYGYWGQGTQVTVSS | low polyreactivity

Sequence | polyreactivity (PSR sort gate)
QVQLVESGGGLVQAGGSLRLSCAPSGFIFAKYTMGWSRHAPGKERELVAAISANGGNTYYADSVKGRFTITRDNAKNTVYLQMNSLNPEDTAVYYCAALYKYSSYFDYWGQGTLVTVSS | high polyreactivity
QVQLVESGGGLVQAGGSLRLSCAPSGFIFARNAMGWYRQAPGKERELVAVISTRGRTYYADSVKGRFTISRDNAKNTVYLQMKRLKPEDTAVYYCNADKVIGYDYWGQGTQVTVSS | high polyreactivity
QVQLVESGGGLVQAGGSLRLSCAPSGFIFSRYAMGWYRQAPGKERELVATITSSGGSTYYADSVKGRFTISRDNAKNTVYLQMNSLKPEDTAVYYCNAKISIRWHYGYYYWGQGTQVTVSS | high polyreactivity
QVQLVESGGGLVQAGGSLRLSCAPSGFTFGIYAMGWYRQAPGKERELLADINVSDGSTYYADSVKRRFTISRDNAKNTVYLQMNSLKPEDTAVYYSAAYVYDTIYTSYREYDYWGQGTQVTVST | low polyreactivity
QVQLVESGGGLVQAGGSLRLSCAPSGFTFRYNTMAWYRQAPGKERELVAAISSSGSSTYYADSVKGRFTISRDNAKNTVYLQMNSLKPVDTAVYYCNAVHRRTRYGYWGQGTQVTVSS | high polyreactivity
QVQLVESGGGLVQAGGSLRLSCAPSGGTFALYAMGWYRQAPGKERELVASISFNGGSTYYADSVKGRFTISRDNAKNTVYLQMNSLKPEDTAVYYCNTGYQWGVYESQTAVEDYWGQGTQVTVSS | low polyreactivity
QVQLVESGGGLVQAGGSLRLSCAPSGGTFIYYAMGWYRQAPGKERELVAAISSGGSTYYADSVKGRFTISRDNAKNTVYLQMNSLKPEDTAVYYCAKRRAVQIVDLEYWRQGTQVTVSS | low polyreactivity
QVQLVESGGGLVQAGGSLRLSCAPSGGTFVTYAMGWYIQAPGKERELVAAITTGGSTYYADSVKGRFTISRDNAKNTVYLQMNSLKPEDTAVYYCAAVYTGSGKRYYKGYYWGQGTQVTVSS | low polyreactivity
QVQLVESGGGLVQAGGSLRLSCAPSGIIAKHNAMGWYRQAPGKERELVAAITSGSITNYADSVKGRFTISRDNAKNTLYLQMNSLKPEDTAVYYCAKRVDAYGWWGRRSGVLSDYWGQGTQVTVSS | low polyreactivity
QVQLVESGGGLVQAGGSLRLSCAPSGIILGYYAMGWYRQAPGKERELVAAISSGGRTYYADSVKGRFTISRDNAKNTVYLQMNSLKPEDTAVYYCAADDTRGREEYDYWGQGTQVTVSS | high polyreactivity
QVQLVESGGGLVQAGGSLRLSCAPSGIISIFNVMGWYRQAPGKERELVASITGRGGSTFYADSVKGRFTISRDNAKNTVYLQMNSLKPEDTAVYYCATDTGYTYPVTGLYDYWGQGTQVTVSS | low polyreactivity
QVQLVESGGGLVQAGGSLRLSCAPSGITFRQFTMGWYRQAPGKERELVAAITSSGRTYYADSVKGRFTISLDNAKNTVYLQMNSLKPEDTAVYYCAAGVGGAAHPVSYFTYDYWGQGTQVTVSS | high polyreactivity
QVQLVESGGGLVQAGGSLRLSCAPSGITFSYSAMGWYRQAPGKERELVAAISGSGTSTYYADSVKGRFTISRDNAKNTVYVQMNSLKPEVTAVYYCAAKGRKSVYSRNSWGQGTQVTVSS | high polyreactivity
QVQLVESGGGLVQAGGSLRLSCAPSGITFYKYAMGWYRQAPGKERELVATISRRGGTTYYADSVKGRFTISRDNAKNTVYLQMNSLKPEDTAVYYCNADSRTYRYYWSYGYWGQGTQVTVSS | high polyreactivity
QVQLVESGGGLVQAGGSLRLSCAPSGLIFYGYAMGWYRQAPGKERELVAAISCSGGRTYYADSVKGRFTISRDNAKNTVYLQMNSLKPEDTAVYYCNVRNRYRPYLPFWPDDYWGQGTQVTVSS | high polyreactivity
QVQLVESGGGLVQAGGSLRLSCAPSGLIFYRYAMGWYRQAPGKERELVAAITRGGSTHYADSVKGRFTISRDNAKFTVYLQMNSLKPEDTAVYYCAATFKGRIYRYEYWGQGTQVTVSS | high polyreactivity
QVQLVESGGGLVQAGGSLRLSCAPSGLTFDVYAMGWYRQAPWKQRELVAAISSIGGSTYYADSVKGRFTISRDTAKNTVYVQMNSLKPEDTAVYYCAAAISLYSYDYWGQGTQVTVSS | low polyreactivity
QVQLVESGGGLVQAGGSLRLSCAPSGLTFKDYTMGWYRQAPGKERELVAAISKSGGRTYYADSVKGRFTISRDNAKNTVYLQMNSLKPEDTAVYYCNADSRTYRYYWSYGYWGQGTQVTVSS | high polyreactivity
QVQLVESGGGLVQAGGSLRLSCAPSGLTYRRYTMGWYRQAPGKEREFVAAISWGGDSTYYADSVKGRFTISRDNAKNTVYLQLTSLKPEDTAVYYCAADFLYIYNYWGQGTQVTVSS | high polyreactivity
QVQLVESGGGLVQAGGSLRLSCAPSGRIFFHYAMGWYRQAPGKERELVAAISRRGGNTYYADSVKGRFTISRDNAKNTVYLQMNRLKPEDTAVYYCAAQYRVGYDYWGQGTQVTVSS | high polyreactivity
QVQLVESGGGLVQAGGSLRLSCAPSGRIFHQYAMGFYRKSPGKERELVAAITWSGGSTHYADSVKGRYTISRDNAKNTVYLQLNSLKPEDTAVYYCAARKSGGLLDYWGQGTQVTVSS | low polyreactivity
